Literature values, collected in PMC6368066 (Neuromuscular disorders : NMD, 2018).
Where no end group is shown, it is not given here.

How the values were obtained:
[1] = target: Piezo 1 (UniProt E2JF22); test: outside-out patch clamp
[2] = tested on: mdx muscles; conditions: mdx muscles in vitro, 10 μM
[3] = tested on: dystrophin; conditions: phase III trials, over 180 weeks

UniProt E2JF22, sequence (E2JF22 whole entry): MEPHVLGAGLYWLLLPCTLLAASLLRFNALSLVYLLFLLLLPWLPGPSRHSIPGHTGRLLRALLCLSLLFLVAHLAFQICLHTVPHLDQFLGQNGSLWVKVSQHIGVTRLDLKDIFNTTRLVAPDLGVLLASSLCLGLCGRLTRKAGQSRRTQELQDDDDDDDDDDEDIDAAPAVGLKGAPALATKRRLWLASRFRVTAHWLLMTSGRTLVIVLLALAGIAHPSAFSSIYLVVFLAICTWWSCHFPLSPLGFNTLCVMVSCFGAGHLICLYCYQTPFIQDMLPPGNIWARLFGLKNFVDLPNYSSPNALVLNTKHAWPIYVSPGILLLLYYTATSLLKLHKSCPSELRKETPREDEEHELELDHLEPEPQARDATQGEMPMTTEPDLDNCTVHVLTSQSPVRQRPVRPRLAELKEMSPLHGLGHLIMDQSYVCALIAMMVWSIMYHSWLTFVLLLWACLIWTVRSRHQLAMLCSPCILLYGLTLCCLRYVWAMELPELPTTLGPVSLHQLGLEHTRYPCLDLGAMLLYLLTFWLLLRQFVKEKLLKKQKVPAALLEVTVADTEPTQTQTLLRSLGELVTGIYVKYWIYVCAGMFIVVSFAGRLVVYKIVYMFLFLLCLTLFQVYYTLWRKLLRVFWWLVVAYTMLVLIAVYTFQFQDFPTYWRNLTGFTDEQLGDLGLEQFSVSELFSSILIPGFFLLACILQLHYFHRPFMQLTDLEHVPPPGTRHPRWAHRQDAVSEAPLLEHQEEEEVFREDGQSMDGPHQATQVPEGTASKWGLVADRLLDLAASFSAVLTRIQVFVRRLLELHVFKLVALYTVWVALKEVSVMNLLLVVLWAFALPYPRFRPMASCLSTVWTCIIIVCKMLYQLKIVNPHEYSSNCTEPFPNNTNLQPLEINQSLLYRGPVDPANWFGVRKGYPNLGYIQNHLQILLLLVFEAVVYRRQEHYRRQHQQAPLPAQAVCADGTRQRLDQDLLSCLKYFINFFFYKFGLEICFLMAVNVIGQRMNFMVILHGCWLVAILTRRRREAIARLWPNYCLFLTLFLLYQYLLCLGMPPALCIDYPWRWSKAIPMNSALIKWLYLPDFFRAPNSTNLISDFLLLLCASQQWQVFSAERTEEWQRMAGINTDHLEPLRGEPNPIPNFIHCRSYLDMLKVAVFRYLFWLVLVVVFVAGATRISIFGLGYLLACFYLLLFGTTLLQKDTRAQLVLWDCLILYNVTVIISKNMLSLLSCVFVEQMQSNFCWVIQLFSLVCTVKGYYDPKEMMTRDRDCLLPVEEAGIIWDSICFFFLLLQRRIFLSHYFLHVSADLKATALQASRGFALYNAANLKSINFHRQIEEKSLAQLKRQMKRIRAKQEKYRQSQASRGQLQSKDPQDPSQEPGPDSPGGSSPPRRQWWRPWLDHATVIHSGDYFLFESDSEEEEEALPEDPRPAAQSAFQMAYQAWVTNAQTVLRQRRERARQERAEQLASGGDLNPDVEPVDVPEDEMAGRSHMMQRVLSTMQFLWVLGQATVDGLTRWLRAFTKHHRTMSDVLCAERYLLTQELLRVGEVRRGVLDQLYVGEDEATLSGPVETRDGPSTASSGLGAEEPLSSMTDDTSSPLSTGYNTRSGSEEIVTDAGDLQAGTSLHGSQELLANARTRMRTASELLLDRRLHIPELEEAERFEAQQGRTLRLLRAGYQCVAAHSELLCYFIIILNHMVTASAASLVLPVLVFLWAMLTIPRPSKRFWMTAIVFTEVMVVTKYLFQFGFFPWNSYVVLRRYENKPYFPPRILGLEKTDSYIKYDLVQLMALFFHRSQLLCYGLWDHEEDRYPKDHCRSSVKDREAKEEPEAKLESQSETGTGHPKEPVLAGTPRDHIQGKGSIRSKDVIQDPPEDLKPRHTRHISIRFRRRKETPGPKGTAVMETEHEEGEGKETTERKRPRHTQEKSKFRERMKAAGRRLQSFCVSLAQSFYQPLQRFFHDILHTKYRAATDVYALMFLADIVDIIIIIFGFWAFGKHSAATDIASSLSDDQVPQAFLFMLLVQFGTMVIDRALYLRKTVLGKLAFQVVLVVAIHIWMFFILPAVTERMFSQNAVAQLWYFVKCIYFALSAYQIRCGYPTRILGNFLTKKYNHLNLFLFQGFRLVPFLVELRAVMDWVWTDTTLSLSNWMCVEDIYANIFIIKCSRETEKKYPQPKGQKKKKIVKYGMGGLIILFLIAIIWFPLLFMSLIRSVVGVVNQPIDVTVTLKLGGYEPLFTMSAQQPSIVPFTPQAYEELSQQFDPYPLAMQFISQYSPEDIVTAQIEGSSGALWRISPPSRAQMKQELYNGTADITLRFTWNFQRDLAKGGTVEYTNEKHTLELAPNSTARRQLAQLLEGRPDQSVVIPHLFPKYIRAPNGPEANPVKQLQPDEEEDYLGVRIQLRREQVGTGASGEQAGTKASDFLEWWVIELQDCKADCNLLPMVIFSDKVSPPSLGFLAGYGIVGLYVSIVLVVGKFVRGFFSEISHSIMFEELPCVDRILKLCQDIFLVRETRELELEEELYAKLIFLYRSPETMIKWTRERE

GsMTx4 (from UniProt Q7YT39)
Kd [1]: 500 nM

GsMTx4: 34 amino acid peptide that selectively inhibits nonselective cationic MSCs (GCLEFWWKCNPNDDKCCRPKLKCSKLFKLCNFSF; ends and bridges not checked; cysteine pairing not given here; UniProt Q7YT39 47-80, looked up)
contraction-induced dye accumulation [2]: reduced contraction-induced dye accumulation

eteplirsen
dystrophin levels [3]: ~ 1 % of normal dystrophin levels

glucagon
serum half-life: 1 to 2 min
